Laboratory results reported in patent publication US20240270846A1 (published 2024).

Target: T1, CD3 epsilon homodimer protein (UniProt P07766 23-126)
T1 construct: Immobilized on Sensor chip CM4 by amine coupling; construct not described; also called CD3 (CD3 epsilon)
Experiment: SPR Biacore T200, CD3 epsilon homodimer on CM4 chip, antibody as analyte;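 note: Amine-coupled CD3 epsilon homodimer, run at 25 °C in HBS-EP+ buffer, ratio is bound amount of each single-residue H chain variant over that of the parent antibody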

T1 sequence (P07766 23-126): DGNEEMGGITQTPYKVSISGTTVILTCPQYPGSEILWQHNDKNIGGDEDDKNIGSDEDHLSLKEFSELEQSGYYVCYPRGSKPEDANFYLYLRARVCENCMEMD

Binder	ratio of amounts bound (Y/X vs CE115HA000)
CE115HA000 H96S one-arm antibody (antibody, human IgG1, kappa, L234A L235A, N297A, name in Kabat numbering, one-arm antibody (one Fab)) heavy: QVQLVESGGGVVQPGRSLRLSCAASGFTFSNAWMHWVRQAPGKGLEWVAQIKAKSNNYATYYAESVKGRFTISRDDSKNSLYLQMNSLKTEDTAVYYCRYVSYGAYYGVDAWGQGTTVTVSSASTKGPSVFPLAPSSKSTSGGTAALGCLVKDYFPEPVTVSWNSGALTSGVHTFPAVLQSSGLYSLSSVVTVPSSSLGTQTYICNVNHKPSNTKVDKKVEPKSCDKTHTCPPCPAPEAAGGPSVFLFPPKPKDTLMISRTPEVTCVVVDVSHEDPEVKFNWYVDGVEVHNAKTKPREEQYASTYRVVSVLTVLHQDWLNGKEYKCKVSNKALPAPIEKTISKAKGQPREPQVYTLPPSRCELTKNQVSLSCAVKGFYPSDIAVEWESNGQPENNYKTTPPVLDSDGSFFLVSKLTVDKSRWQQGNVFSCSVMHEALHNHYTQKSLSLSPDYKDDDDK EPKSSDKTHTCPPCPAPELLGGPSVFLFPPKPKDTLMISRTPEVTCVVVDVSHEDPEVKFNWYVDGVEVHNAKTKPREEQYNSTYRVVSVLTVLHQDWLNGKEYKCKVSNKALPAPIEKTISKAKGQPREPQVCTLPPSRDELTKNQVSLWCLVKGFYPSDIAVEWESNGQPENNYKTTPPVLDSDGSFFLYSKLTVDKSRWQQGNVFSCSVMHEALHNRYTQKSLSLSP light: DIVMTQSPLSLPVTPGEPASISCRSSQSLVHSNRNTYLHWYQQKPGQAPRLLIYKVSNRFSGVPDRFSGSGSGTDFTLKISRVEAEDVGVYYCGQGTQVPYTFGQGTKLEIKRTVAAPSVFIFPPSDEQLKSGTASVVCLLNNFYPREAKVQWKVDNALQSGNSQESVTEQDSKDSTYSLSSTLTLSKADYEKHKVYACEVTHQGLSSPVTKSFNRGEC	0.44
CE115HA000 K64Q one-arm antibody (antibody, human IgG1, kappa, L234A L235A, N297A, name in Kabat numbering, one-arm antibody (one Fab)) heavy: QVQLVESGGGVVQPGRSLRLSCAASGFTFSNAWMHWVRQAPGKGLEWVAQIKAKSNNYATYYAESVQGRFTISRDDSKNSLYLQMNSLKTEDTAVYYCRYVHYGAYYGVDAWGQGTTVTVSSASTKGPSVFPLAPSSKSTSGGTAALGCLVKDYFPEPVTVSWNSGALTSGVHTFPAVLQSSGLYSLSSVVTVPSSSLGTQTYICNVNHKPSNTKVDKKVEPKSCDKTHTCPPCPAPEAAGGPSVFLFPPKPKDTLMISRTPEVTCVVVDVSHEDPEVKFNWYVDGVEVHNAKTKPREEQYASTYRVVSVLTVLHQDWLNGKEYKCKVSNKALPAPIEKTISKAKGQPREPQVYTLPPSRCELTKNQVSLSCAVKGFYPSDIAVEWESNGQPENNYKTTPPVLDSDGSFFLVSKLTVDKSRWQQGNVFSCSVMHEALHNHYTQKSLSLSPDYKDDDDK EPKSSDKTHTCPPCPAPELLGGPSVFLFPPKPKDTLMISRTPEVTCVVVDVSHEDPEVKFNWYVDGVEVHNAKTKPREEQYNSTYRVVSVLTVLHQDWLNGKEYKCKVSNKALPAPIEKTISKAKGQPREPQVCTLPPSRDELTKNQVSLWCLVKGFYPSDIAVEWESNGQPENNYKTTPPVLDSDGSFFLYSKLTVDKSRWQQGNVFSCSVMHEALHNRYTQKSLSLSP light: DIVMTQSPLSLPVTPGEPASISCRSSQSLVHSNRNTYLHWYQQKPGQAPRLLIYKVSNRFSGVPDRFSGSGSGTDFTLKISRVEAEDVGVYYCGQGTQVPYTFGQGTKLEIKRTVAAPSVFIFPPSDEQLKSGTASVVCLLNNFYPREAKVQWKVDNALQSGNSQESVTEQDSKDSTYSLSSTLTLSKADYEKHKVYACEVTHQGLSSPVTKSFNRGEC	0.89
CE115HA000 K64S one-arm antibody (antibody, human IgG1, kappa, L234A L235A, N297A, name in Kabat numbering, one-arm antibody (one Fab)) heavy: QVQLVESGGGVVQPGRSLRLSCAASGFTFSNAWMHWVRQAPGKGLEWVAQIKAKSNNYATYYAESVSGRFTISRDDSKNSLYLQMNSLKTEDTAVYYCRYVHYGAYYGVDAWGQGTTVTVSSASTKGPSVFPLAPSSKSTSGGTAALGCLVKDYFPEPVTVSWNSGALTSGVHTFPAVLQSSGLYSLSSVVTVPSSSLGTQTYICNVNHKPSNTKVDKKVEPKSCDKTHTCPPCPAPEAAGGPSVFLFPPKPKDTLMISRTPEVTCVVVDVSHEDPEVKFNWYVDGVEVHNAKTKPREEQYASTYRVVSVLTVLHQDWLNGKEYKCKVSNKALPAPIEKTISKAKGQPREPQVYTLPPSRCELTKNQVSLSCAVKGFYPSDIAVEWESNGQPENNYKTTPPVLDSDGSFFLVSKLTVDKSRWQQGNVFSCSVMHEALHNHYTQKSLSLSPDYKDDDDK EPKSSDKTHTCPPCPAPELLGGPSVFLFPPKPKDTLMISRTPEVTCVVVDVSHEDPEVKFNWYVDGVEVHNAKTKPREEQYNSTYRVVSVLTVLHQDWLNGKEYKCKVSNKALPAPIEKTISKAKGQPREPQVCTLPPSRDELTKNQVSLWCLVKGFYPSDIAVEWESNGQPENNYKTTPPVLDSDGSFFLYSKLTVDKSRWQQGNVFSCSVMHEALHNRYTQKSLSLSP light: DIVMTQSPLSLPVTPGEPASISCRSSQSLVHSNRNTYLHWYQQKPGQAPRLLIYKVSNRFSGVPDRFSGSGSGTDFTLKISRVEAEDVGVYYCGQGTQVPYTFGQGTKLEIKRTVAAPSVFIFPPSDEQLKSGTASVVCLLNNFYPREAKVQWKVDNALQSGNSQESVTEQDSKDSTYSLSSTLTLSKADYEKHKVYACEVTHQGLSSPVTKSFNRGEC	0.84
CE115HA000 H96Y one-arm antibody (antibody, human IgG1, kappa, L234A L235A, N297A, name in Kabat numbering, one-arm antibody (one Fab)) heavy: QVQLVESGGGVVQPGRSLRLSCAASGFTFSNAWMHWVRQAPGKGLEWVAQIKAKSNNYATYYAESVKGRFTISRDDSKNSLYLQMNSLKTEDTAVYYCRYVYYGAYYGVDAWGQGTTVTVSSASTKGPSVFPLAPSSKSTSGGTAALGCLVKDYFPEPVTVSWNSGALTSGVHTFPAVLQSSGLYSLSSVVTVPSSSLGTQTYICNVNHKPSNTKVDKKVEPKSCDKTHTCPPCPAPEAAGGPSVFLFPPKPKDTLMISRTPEVTCVVVDVSHEDPEVKFNWYVDGVEVHNAKTKPREEQYASTYRVVSVLTVLHQDWLNGKEYKCKVSNKALPAPIEKTISKAKGQPREPQVYTLPPSRCELTKNQVSLSCAVKGFYPSDIAVEWESNGQPENNYKTTPPVLDSDGSFFLVSKLTVDKSRWQQGNVFSCSVMHEALHNHYTQKSLSLSPDYKDDDDK EPKSSDKTHTCPPCPAPELLGGPSVFLFPPKPKDTLMISRTPEVTCVVVDVSHEDPEVKFNWYVDGVEVHNAKTKPREEQYNSTYRVVSVLTVLHQDWLNGKEYKCKVSNKALPAPIEKTISKAKGQPREPQVCTLPPSRDELTKNQVSLWCLVKGFYPSDIAVEWESNGQPENNYKTTPPVLDSDGSFFLYSKLTVDKSRWQQGNVFSCSVMHEALHNRYTQKSLSLSP light: DIVMTQSPLSLPVTPGEPASISCRSSQSLVHSNRNTYLHWYQQKPGQAPRLLIYKVSNRFSGVPDRFSGSGSGTDFTLKISRVEAEDVGVYYCGQGTQVPYTFGQGTKLEIKRTVAAPSVFIFPPSDEQLKSGTASVVCLLNNFYPREAKVQWKVDNALQSGNSQESVTEQDSKDSTYSLSSTLTLSKADYEKHKVYACEVTHQGLSSPVTKSFNRGEC	0.17
